Laboratory results taken from patent US7977317B2, “Compositions and methods for modulating blood-brain barrier transport” (Raptor Pharmaceutical Inc., priority 2001, dated 2011).
One block for each molecule: values may come before it.

Experiments:
BBCECs = assay: Binding of [125I]-p97 to BBCECs with saponin treatment (Scatchard); parameters: species or system bovine; conditions: 200-fold molar excess, after saponin treatment (FIG. 12b)
Experimental: FIG. 12 illustrates the Binding of p97 to BBCE cells. FIG. 12a, p97 binding experiments were performed with BBCECs that were either pre-incubated in Ringer-Hepes solution or pre-treated with saponin. BBCECs were then incubated for 2 hrs at 4° C. with [^125I]-p97 (25 nM). At the end of the incubation, the filters were gently washed with cold PBS and then the radioactivity associated with the ECs was quantified; FIG. 12b, The binding of [^125I]-p97 was also performed with increasing concentrations of unlabelled p97 following saponin treatment. The results were expressed as the percentage of the [^125I]-p97 binding measured in the absence of unlabelled p97; FIG. 12c, The results were also transformed with a Scatchard plot and expressed as the ratio of bound p97/free p97 as a function of the bound p97 (n=5).
Transcytosis and binding experiments. […] At the end of the experiment, [^125I]-p97 was quantitated in 500 μl of the lower chamber of each well by TCA precipitation. We also measured p97 in 50 μl of the lower chamber of each well by SDS-PAGE according to the method of Laemmli (Laemmli, U.K. Nature; 227: 680-685 (1970)). Proteins were separated on 7.5% acrylamide gels, stained with Coomassie Blue, dried and analysed by densitometry. […] After 2 hrs at 4° C., ECs were gently washed, and the [^125I]-p97 attached to the ECs was quantified in a liquid scintillation counter. […]

[1] = system: astrocytes and astrocytoma cells; assay: Uptake of [125I]-p97 in rat astrocytes and astrocytoma cells; assay type: cell-based; conditions: 50 nM p97, 2 h at 37° C. (FIG. 24)
Experimental: FIG. 24. Uptake of p97 in rat astrocytes and astrocytoma cells. Cells were grown in monolayer in six-multiwell microplates at 37° C. under 5% CO2. Uptake of [^125I]-p97 was measured at 37° C. for 2 h in astrocytes and astrocytomas. The incubation medium contained [^125I]-p97 and a final concentration of 50 nM p97 in Ringer/Hepes solution. After incubation, the cell monolayer was washed three times with cold Ringer/Hepes solution. Triton X-100 0.1% was added and the [^125I]-p97 uptake was assessed in the Triton X-100 soluble fraction by TCA precipitation. Results represent means±SD (n=3, Astro; n=6, CTX and RG2; n=9, C6).
Uptake of [^125I]-p97. Cells were grown in monolayer in six-multiwell microplates at 37° C. under 5% CO2. Uptake of [^125I]-p97 was measured at 37° C. for 2 h in astrocytes and astrocytomas. The incubation medium contained [^125I]-p97 and a final concentration of 50 nM P97 in Ringer/Hepes solution. The uptake of [^125I]-p97 was performed in presence or in absence of 5 μM cold-P97. After incubation, the cell monolayer was wash three times with cold Ringer/Hepes solution. Triton X-100 0.1% was added and the [^125I]-p97 uptake was assessed in the Triton X-100 soluble fraction by TCA precipitation.

[2] = system: endogenous melanotransferrin; assay: RT-PCR after p97 treatment in U-87 cells: endogenous melanotransferrin; assay type: cell-based, human; conditions: RT-PCR (FIG. 36)
Experimental: FIG. 36. Effect of p97 and RAP treatments in U-87 cells (RT-PCR) on endogenous melanotransferrin. Cells (2×105) were plated onto six-multiwell microplates and grown at 37° C. under 5% CO2 with optimal culture medium supplemented with serum for 4 days. Treatment with p97 and RAP was performed in serum free medium for 72 hours. RNA isolation and RT-PCR were performed as described in the Examples. The amplified PCR products were electrophoresed on a 2% agarose gel and visualized under ultraviolet light. (n=1).
RNA extraction. Cells in six-wells plate or in 75 cm^2 plastic tissue culture flasks were grown at 37° C. under 5% CO2 with optimal culture medium to 80-90% confluence. Total cellular RNA was preserved in Trizol (Gibco BRL, Burlington, ON). The solution are frozen at −80° C. until extraction. The solution was defroze and mixed with 5:1 chloroform for 3 minutes at room temperature. The suspension was centrifugated at 12000 g at 4° C. The clear supernatant was collected then mixed with 1:1 of isopropanol for 15 minutes at room temperature. The mix was centrifugated at 12000×g for 10 min at 4° C. The pellets was washed with 70% ethanol and dried before resuspended in RNase Free H2O.
RT-PCR. RT-PCR was performed for members of the LDL-R family: LRP, LRP1B, megalin, LDL, VLDL, LRP8, LR11, RAP, LR3, cubulin and P97. […]

U-87 cells = assay: Morphology of U-87 cells after p97 treatment; assay type: cell-based, human; conditions: FIG. 33
LRP = LRP (Homo sapiens, UniProt Q07954); conditions: Tables 1-3; cited from earlier work
Sequence of LRP (Q07954 20-4544): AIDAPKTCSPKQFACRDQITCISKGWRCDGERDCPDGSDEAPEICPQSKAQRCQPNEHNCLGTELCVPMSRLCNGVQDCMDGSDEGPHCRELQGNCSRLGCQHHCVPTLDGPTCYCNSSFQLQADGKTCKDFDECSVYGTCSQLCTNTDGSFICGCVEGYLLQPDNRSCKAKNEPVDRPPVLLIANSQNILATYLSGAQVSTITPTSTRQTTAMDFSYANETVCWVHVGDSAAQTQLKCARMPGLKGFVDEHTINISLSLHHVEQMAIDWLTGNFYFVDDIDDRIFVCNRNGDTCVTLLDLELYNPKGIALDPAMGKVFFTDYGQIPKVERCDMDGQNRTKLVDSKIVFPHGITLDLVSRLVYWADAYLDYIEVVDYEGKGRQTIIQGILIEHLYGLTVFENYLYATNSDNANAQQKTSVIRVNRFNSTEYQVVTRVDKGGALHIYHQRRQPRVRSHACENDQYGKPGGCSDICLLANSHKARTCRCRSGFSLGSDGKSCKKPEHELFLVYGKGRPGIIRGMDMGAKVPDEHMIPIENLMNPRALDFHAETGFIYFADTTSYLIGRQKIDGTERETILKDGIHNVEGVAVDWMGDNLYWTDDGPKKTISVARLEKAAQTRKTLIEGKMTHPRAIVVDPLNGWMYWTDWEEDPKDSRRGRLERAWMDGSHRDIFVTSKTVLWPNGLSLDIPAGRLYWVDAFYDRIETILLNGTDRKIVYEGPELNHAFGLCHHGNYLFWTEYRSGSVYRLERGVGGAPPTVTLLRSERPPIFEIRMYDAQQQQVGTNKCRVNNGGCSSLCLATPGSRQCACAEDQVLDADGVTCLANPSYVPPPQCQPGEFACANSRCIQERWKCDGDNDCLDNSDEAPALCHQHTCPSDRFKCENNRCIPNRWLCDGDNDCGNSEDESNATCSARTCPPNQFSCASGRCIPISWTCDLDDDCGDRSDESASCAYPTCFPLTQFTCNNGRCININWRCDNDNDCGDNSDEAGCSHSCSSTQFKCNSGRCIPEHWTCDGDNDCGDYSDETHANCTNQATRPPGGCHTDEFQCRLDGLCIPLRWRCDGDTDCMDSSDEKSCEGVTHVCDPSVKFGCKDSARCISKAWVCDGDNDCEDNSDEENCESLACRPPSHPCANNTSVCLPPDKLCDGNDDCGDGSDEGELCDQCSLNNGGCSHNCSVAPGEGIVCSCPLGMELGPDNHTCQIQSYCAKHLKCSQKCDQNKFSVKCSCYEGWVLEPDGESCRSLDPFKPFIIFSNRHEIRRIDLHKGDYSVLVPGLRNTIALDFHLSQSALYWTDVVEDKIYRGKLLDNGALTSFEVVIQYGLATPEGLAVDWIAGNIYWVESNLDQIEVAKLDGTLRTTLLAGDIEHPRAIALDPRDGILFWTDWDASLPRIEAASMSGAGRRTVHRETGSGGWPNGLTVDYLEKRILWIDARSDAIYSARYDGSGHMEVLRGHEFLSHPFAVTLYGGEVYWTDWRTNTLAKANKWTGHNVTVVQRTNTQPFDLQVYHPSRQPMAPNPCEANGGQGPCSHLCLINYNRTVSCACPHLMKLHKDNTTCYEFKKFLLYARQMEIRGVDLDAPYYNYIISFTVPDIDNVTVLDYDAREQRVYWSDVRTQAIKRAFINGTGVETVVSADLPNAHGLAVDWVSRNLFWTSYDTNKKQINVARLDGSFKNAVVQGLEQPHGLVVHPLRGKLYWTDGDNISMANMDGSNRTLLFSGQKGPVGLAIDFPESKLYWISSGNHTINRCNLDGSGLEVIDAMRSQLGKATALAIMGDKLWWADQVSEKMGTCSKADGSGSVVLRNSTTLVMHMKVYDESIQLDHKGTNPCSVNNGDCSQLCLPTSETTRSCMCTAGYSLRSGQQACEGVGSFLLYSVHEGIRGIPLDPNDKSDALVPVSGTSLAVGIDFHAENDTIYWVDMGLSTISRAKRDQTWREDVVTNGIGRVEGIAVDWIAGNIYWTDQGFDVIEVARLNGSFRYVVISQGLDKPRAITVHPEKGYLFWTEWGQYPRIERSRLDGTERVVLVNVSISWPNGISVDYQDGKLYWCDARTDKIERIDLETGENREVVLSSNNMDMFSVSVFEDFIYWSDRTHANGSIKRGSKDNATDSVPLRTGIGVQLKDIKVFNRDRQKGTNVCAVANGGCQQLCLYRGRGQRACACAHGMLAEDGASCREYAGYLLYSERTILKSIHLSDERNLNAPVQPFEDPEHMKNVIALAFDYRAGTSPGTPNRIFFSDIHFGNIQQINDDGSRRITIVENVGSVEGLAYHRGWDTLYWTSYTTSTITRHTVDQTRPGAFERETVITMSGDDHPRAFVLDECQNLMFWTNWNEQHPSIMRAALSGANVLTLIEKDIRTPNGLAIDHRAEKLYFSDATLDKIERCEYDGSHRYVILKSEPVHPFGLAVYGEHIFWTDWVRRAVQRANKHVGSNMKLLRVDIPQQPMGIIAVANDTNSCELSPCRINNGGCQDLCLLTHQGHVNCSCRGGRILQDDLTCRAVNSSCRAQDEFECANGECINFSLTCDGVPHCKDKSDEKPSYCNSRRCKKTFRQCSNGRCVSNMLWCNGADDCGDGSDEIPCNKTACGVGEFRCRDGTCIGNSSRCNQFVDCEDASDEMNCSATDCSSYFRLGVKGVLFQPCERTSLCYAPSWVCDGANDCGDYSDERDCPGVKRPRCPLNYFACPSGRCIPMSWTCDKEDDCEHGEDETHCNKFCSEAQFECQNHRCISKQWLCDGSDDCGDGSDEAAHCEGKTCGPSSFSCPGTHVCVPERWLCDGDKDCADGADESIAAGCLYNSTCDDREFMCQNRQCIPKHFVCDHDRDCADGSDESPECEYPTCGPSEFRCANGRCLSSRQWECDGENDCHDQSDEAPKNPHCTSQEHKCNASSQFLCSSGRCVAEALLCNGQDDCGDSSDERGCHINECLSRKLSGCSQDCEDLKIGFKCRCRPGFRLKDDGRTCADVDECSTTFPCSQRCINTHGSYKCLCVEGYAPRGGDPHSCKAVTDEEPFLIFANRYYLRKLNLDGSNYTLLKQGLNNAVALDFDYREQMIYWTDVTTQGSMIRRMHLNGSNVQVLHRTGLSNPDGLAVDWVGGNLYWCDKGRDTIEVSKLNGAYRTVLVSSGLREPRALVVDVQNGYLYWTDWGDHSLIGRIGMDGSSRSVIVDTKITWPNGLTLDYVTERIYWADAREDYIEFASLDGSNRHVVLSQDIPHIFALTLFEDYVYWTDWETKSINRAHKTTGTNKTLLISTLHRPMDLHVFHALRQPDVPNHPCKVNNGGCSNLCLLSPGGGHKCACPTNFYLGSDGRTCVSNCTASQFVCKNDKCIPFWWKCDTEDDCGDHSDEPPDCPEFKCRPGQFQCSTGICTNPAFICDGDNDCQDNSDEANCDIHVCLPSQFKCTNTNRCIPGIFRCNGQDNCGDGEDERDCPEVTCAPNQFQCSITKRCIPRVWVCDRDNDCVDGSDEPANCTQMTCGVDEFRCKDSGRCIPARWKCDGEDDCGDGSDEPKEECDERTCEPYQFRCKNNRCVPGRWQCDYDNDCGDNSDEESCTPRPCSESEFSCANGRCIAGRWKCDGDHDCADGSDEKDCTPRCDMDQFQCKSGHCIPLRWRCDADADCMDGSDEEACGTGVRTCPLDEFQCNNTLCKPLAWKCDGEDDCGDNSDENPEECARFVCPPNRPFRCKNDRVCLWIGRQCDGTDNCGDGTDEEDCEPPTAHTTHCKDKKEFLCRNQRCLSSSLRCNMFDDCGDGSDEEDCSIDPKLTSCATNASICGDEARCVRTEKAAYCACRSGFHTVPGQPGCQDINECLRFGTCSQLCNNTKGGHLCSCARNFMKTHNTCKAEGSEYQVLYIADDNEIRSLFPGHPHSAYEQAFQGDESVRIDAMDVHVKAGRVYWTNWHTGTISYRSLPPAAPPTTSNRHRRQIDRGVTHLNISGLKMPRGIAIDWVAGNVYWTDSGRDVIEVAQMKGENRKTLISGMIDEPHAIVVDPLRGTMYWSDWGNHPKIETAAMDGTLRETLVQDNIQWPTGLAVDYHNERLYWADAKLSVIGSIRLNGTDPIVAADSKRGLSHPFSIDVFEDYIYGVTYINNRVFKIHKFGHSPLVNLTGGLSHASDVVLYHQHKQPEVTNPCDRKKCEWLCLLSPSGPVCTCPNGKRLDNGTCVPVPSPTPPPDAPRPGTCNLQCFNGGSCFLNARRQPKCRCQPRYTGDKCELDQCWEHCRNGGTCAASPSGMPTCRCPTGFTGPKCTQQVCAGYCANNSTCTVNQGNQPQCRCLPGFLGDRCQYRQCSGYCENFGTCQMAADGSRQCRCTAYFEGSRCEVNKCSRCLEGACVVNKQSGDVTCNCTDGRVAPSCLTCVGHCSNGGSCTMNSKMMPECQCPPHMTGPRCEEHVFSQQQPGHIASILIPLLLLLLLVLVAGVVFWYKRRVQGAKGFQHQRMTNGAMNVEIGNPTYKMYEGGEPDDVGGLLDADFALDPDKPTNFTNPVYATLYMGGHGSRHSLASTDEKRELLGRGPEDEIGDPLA

- Inhibition of radiolabel ([125I]-p97) binding by unlabelled p97 (BBCECs): approximately 50%
B1: p97: recombinant human melanotransferrin (p97), provided by Synapse Technologies (protein, UniProt P08582 20-709, looked up)
Melanotransferrin: GMEVRWCATSDPEQHKCGNMSEAFREAGIQPSLLCVRGTSADHCVQLIAAQEADAITLDGGAIYEAGKEHGLKPVVGEVYDQEVGTSYYAVAVVRRSSHVTIDTLKGVKSCHTGINRTVGWNVPVGYLVESGRLSVMGCDVLKAVSDYFGGSCVPGAGETSYSESLCRLCRGDSSGEGVCDKSPLERYYDYSGAFRCLAEGAGDVAFVKHSTVLENTDGKTLPSWGQALLSQDFELLCRDGSRADVTEWRQCHLARVPAHAVVVRADTDGGLIFRLLNEGQRLFSHEGSSFQMFSSEAYGQKDLLFKDSTSELVPIATQTYEAWLGHEYLHAMKGLLCDPNRLPPYLRWCVLSTPEIQKCGDMAVAFRRQRLKPEIQCVSAKSPQHCMERIQAEQVDAVTLSGEDIYTAGKTYGLVPAAGEHYAPEDSSNSYYVVAVVRRDSSHAFTLDELRGKRSCHAGFGSPAGWDVPVGALIQRGFIRPKDCDVLTAVSEFFNASCVPVNNPKNYPSSLCALCVGDEQGRNKCVGNSQERYYGYRGAFRCLVENAGDVAFVRHTTVFDNTNGHNSEPWAAELRSEDYELLCPNGARAEVSQFAACNLAQIPPHAVMVRPDTNIFTVYGLLDKAQDLFGDDHNKNGFKMFDSSNYHGQDLLFKDATVRAVPVGEKTTYRGWLGLDYVAALEGMSSQQC
- Specific uptake of p97 in astrocytoma cells over astrocytes [1]: greatly increased
- Expression of endogenous p97 [2]: appears to induce its own expression
- Effect on the morphology of U-87 cells (U-87 cells): no discernable effect on the morphology

B2: lactoferrin: lactoferrin (Lf), LRP ligand used as competitor (protein, UniProt P02788 20-710, looked up)
Lactotransferrin: GRRRSVQWCAVSQPEATKCFQWQRNMRKVRGPPVSCIKRDSPIQCIQAIAENRADAVTLDGGFIYEAGLAPYKLRPVAAEVYGTERQPRTHYYAVAVVKKGGSFQLNELQGLKSCHTGLRRTAGWNVPIGTLRPFLNWTGPPEPIEAAVARFFSASCVPGADKGQFPNLCRLCAGTGENKCAFSSQEPYFSYSGAFKCLRDGAGDVAFIRESTVFEDLSDEAERDEYELLCPDNTRKPVDKFKDCHLARVPSHAVVARSVNGKEDAIWNLLRQAQEKFGKDKSPKFQLFGSPSGQKDLLFKDSAIGFSRVPPRIDSGLYLGSGYFTAIQNLRKSEEEVAARRARVVWCAVGEQELRKCNQWSGLSEGSVTCSSASTTEDCIALVLKGEADAMSLDGGYVYTAGKCGLVPVLAENYKSQQSSDPDPNCVDRPVEGYLAVAVVRRSDTSLTWNSVKGKKSCHTAVDRTAGWNIPMGLLFNQTGSCKFDEYFSQSCAPGSDPRSNLCALCIGDEQGENKCVPNSNERYYGYTGAFRCLAENAGDVAFVKDVTVLQNTDGNNNEAWAKDLKLADFALLCLDGKRKPVTEARSCHLAMAPNHAVVSRMDKVERLKQVLLHQQAKFGRNGSDCPDKFCLFQSETKNLLFNDNTECLARLHGKTTYEKYLGPQYVAGITNLKKCSTSPLLEACEFLRK
- Binding to LRP (LRP): Yes
